Assay [1] has as its target adeno-associated virus 2 (AAV2) capsid (adeno-associated virus 2).
Assay [2] has as its target adeno-associated virus 6 (AAV6) capsid (adeno-associated virus 6).
The target in assay [3] is adeno-associated virus 2 (AAV2) capsid (adeno-associated virus 2). The assay can be described thus: SPR; AAV2 amine-coupled to a CM5 chip (9451 RU); HD5 or HNP1 as analyte; BIAcore X100, 25°C, PBS running buffer; 1:1 binding model for KD; stoichiometry by GraphPad Prism; 2 replicates; paper speaks of avidity. A general note: In SPR one partner is held on a chip, and binding of the other changes the refractive index at the surface.

Assay [4] has the same target. The source holds these as a separate data set.

human defensin 5 (HD5) (peptide): in assay [1], the IC50 of inhibition of AAV2 binding to HeLa cells in the cold (qPCR of bound genomes) turned out to be 9.2 µM and the IC50 of inhibition of AAV2 infection of HeLa cells (GFP), defensin added post-attachment stood at 4.4 µM. In assay [2], the IC50 of inhibition of AAV6 binding to HeLa cells in the cold (qPCR of bound genomes); inhibition incomplete amounted to 41.6 µM. Also, in assay [3], the Kd was found to be 0.57 µM and the stoichiometry N (molecules per capsid) stood at 385.
In assay [4], human neutrophil peptide 1 (HNP1) registered an IC50 of inhibition of AAV2 infection of HeLa cells (GFP), defensin incubated with virus pre-attachment of 9.7 µM. In assay [1], the IC50 of inhibition of AAV2 infection of HeLa cells (GFP), defensin added post-attachment is 6 µM. In assay [3], this substance registered a Kd of 0.32 µM and a stoichiometry N (molecules per capsid) of 227.

Source of the values: publication PMC12289019.
